# Measurements taken from the supplement of paper PMC10567573.
# ± gives the standard deviation.
# Experiment: protein stability index of a GFP-peptide fusion (GPS, HEK-293T) (PSI 1-6); higher = more stable
# Conditions: c terminus: a fixed tail appended
# 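Further: 24-mer peptide tiles fused after GFP, lentivirally expressed, FACS-sorted into six equal bins by GFP/DsRed ratio, decoded by Illumina sequencing, PSI is the read-weighted mean bin number.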
Sequence,protein stability index (treatment: DMSO),"protein stability index (treatment: MLN4924 1 uM, 8 h)"
AAAHYTGDKASPDQNASTHTPQSS [CLINT1],5.52 ± 0.25,5.524 ± 0.042
AAFGHVQRAEMLPKTSGTRATSLG [CPOX],3.82 ± 0.18,3.91 ± 0.077
AAGYIQCMHEVHTFVSTCQAIDAT [HES6],1.93 ± 0.6,2.12 ± 0.37
AALSASMASLLEDLSHIEGLSQAP [SERTAD1],2.81 ± 0.22,2.76 ± 0.26
AANEQLTRAILRERICSEEERAKA [CHCHD3],4.82 ± 0.23,4.97 ± 0.19
AAWQGHLPIVKLLAKQPGVSVNAQ [RIPK4],2.57 ± 0.38,3.07 ± 0.61
ADCVRGPDGVCLSGGRGPQGDKAI [PBXIP1],4.52 ± 0.57,4.78 ± 0.22
ADNKIVSHLLVAEPEKIYAMPDPT [ESRRG],4.23 ± 0.17,4.22 ± 0.27
ADRPFSAPWWFWLSLTGVSLAGAL [POMT2],2.93 ± 0.7,3 ± 0.48
AEPAPRAREGGGCGRSEVRPVAPR [SMAD6],4.35 ± 0.093,4.15 ± 0.4
AFACQVAGCCQVFDALDDYEHHYH [ZNF511],2.97 ± 0.45,2.74 ± 0.5
AFCSSDEELEDSKALLYLPIAPEV [RBBP5],3.7 ± 0.21,3.66 ± 0.28
AFELLGKNTFEFLKENNFQPYPLP [CLK3],2.51 ± 0.33,2.65 ± 0.086
AFHDGQRSRLRPRDDLDRLGVFLD [TRIM14],3.35 ± 0.26,3.66 ± 0.31
AGEAHMAADGETNGSCENSDASSH [EHMT1],5.55 ± 0.36,5.69 ± 0.15
AGFQDIPKRCLKAREHFGTVKTHL [TSN],2.81 ± 0.44,2.78 ± 0.24
AGMGKVTSASFGEESTPGQTNSET [HDAC6],5.3 ± 0.29,5.25 ± 0.1
AGSPIRHENAVQGSAVEVQTYQPP [ISL2],4.91 ± 0.14,5.04 ± 0.19
AGSSLPTSSKVNATVPSNMMSVNG [ACBD3],4.13 ± 0.19,4.16 ± 0.14
AHTATASAVEGAPPARPRPRSPEC [IRX6],5.37 ± 0.13,5.19 ± 0.28
AICGDRATGKHYGASSCDGCKGFF [HNF4A],2.8 ± 0.24,2.98 ± 0.31
AIEGIPGSDYVNANYIDGYRKQNA [PTPRD],4.09 ± 0.24,4.6 ± 0.12

Sequence,protein stability index (treatment: DMSO),"protein stability index (treatment: MLN4924 1 uM, 8 h)"
AKKAMGYQPLVTMDDAMERTVQSF [NSDHL],3.62 ± 0.069,3.46 ± 0.39
AKVLTLSDDLERTIEERVNILFDF [EIF5],2.33 ± 0.36,2.4 ± 0.21
AKYEYMEEQVILTEKDLLEDGFGE [SAT1],4.02 ± 0.4,4.06 ± 0.37
ALEALEPFWEVLVRSTETVERDNM [HDAC6],2.95 ± 0.23,3.12 ± 0.45
ALKLFPVQPCSAVHLLLKKVLFAL [FAM189A2],2.39 ± 0.17,2.35 ± 0.35
ALLDLHFPSDHLGDLGDPFHLGLE [TFE3],2.37 ± 0.36,2.32 ± 0.28
ALLSCCLTVVSFYQVAALQGDLAS [TNFSF13B],3.57 ± 0.21,3.2 ± 0.26
ALPDSVLRRFVVRTMCAVLGLVAR [AUP1],2.51 ± 0.21,2.32 ± 0.44
ALPKATILDLSCNKLTTLPSDFCG [LRRC59],2.82 ± 0.16,3.02 ± 0.28
ALRKTGQYSGMLDCARRILAREGV [SLC25A25],2.29 ± 0.18,2.27 ± 0.15
ALSRKKSQGLAREQHAGTSEGLHL [FBF1],4.26 ± 0.28,3.78 ± 0.42
ALVHDHQAYAHYLLATFPRRALAP [ANKRD9],2.22 ± 0.21,2.4 ± 0.19
ALWKHLKSMHREELEKSGHGQAGQ [ZBED2],2.98 ± 0.38,3.48 ± 0.43
ANAVISVSGINHDVTSGDHGDYFR [CPN1],3.58 ± 0.13,3.48 ± 0.31
ANNDHTVLSLACAGGHLAVVELLL [ANKRD17],2.41 ± 0.25,2.42 ± 0.24
ANRPDPNTPMEETVRAMTHVINQG [KCNAB2],4.75 ± 0.13,4.78 ± 0.12
APGSSVEYQCQNLYQLEGNNQITC [CFHR2],3.88 ± 0.12,3.88 ± 0.17
APKKELINIKGISEAKADKILAEA [RAD51],4.05 ± 0.25,4.49 ± 0.46
APRGTPDPGLGEGPALWLRSTCVY [PLEKHN1],2.43 ± 0.24,2.34 ± 0.27
APVLVAAPHSTFFDPIVLLPCDLP [LPCAT4],2.25 ± 0.27,2.47 ± 0.32
ARAEQEEEFISNTLFKKIQALQKE [CCDC6],3.48 ± 0.41,3.77 ± 0.34
ARASEGSDSGSDKSLEGGGTAFDA [SMG5],5.48 ± 0.3,5.37 ± 0.45

Sequence,protein stability index (treatment: DMSO),"protein stability index (treatment: MLN4924 1 uM, 8 h)"
ARCTAGTLHNLSHHREGLLAIFKS [CTNNB1],2.48 ± 0.19,2.45 ± 0.19
ARLMRSNYPPPLSSAALRGAGPTR [C6orf223],3.79 ± 0.2,3.96 ± 0.14
ARVLDRRGCSRVEGGGTSLHVACE [ANKRD9],3.57 ± 0.27,3.47 ± 0.46
ASFDVCESVDEAGGSGPAGLRAST [RHOBTB2],5.24 ± 0.21,5.02 ± 0.15
ASKSKGAAVKLADFGLAIEVQGDQ [CAMK2D],4.13 ± 0.37,4.37 ± 0.3
ASRLLTTALTSFCAKYTYPVCSAL [FANCE],3.29 ± 0.58,3.34 ± 0.49
AVGGRNAAGELPTVECYNPRTNEW [KLHL13],4.2 ± 0.13,4.33 ± 0.13
AVLGRYVPGLLLSYLMLVTVMMWP [RETREG3],3.41 ± 0.13,3.1 ± 0.47
AWGPGTLAAAPEGLEDAGLDPHFV [TEX19],4.31 ± 0.25,4.37 ± 0.26
AYDLSSVIASGSSVGHNNLIPLAN [CARM1],3.23 ± 0.4,3.09 ± 0.28
AYEYEREGLYEQAFQLLRRFVQAE [TRADD],2.27 ± 0.31,2.48 ± 0.26
CCSRYLCMGAMSLFLPCLLCYPPA [SPRY1],2.82 ± 0.47,2.58 ± 0.63
CDEARNHYGGVVSLIPLILDLMKE [SPACA9],2.3 ± 0.29,2.36 ± 0.23
CGPQWEMSEWSECTAKCGERSVVT [ADAMTSL2],2.92 ± 0.42,3 ± 0.52
CISDELLENLCENASTLRTINIKC [FBXO39],2.47 ± 0.2,2.69 ± 0.28
CLGLSYDGLLGDNQIMPKTGFLII [MAGEA6],3.01 ± 0.6,2.49 ± 0.44
CLHHICTNYNNVCRKFPRDMKAMS [RHOBTB2],2.26 ± 0.18,2.42 ± 0.067
CLLVLRLFLGIHVFLVSCALPDSV [AUP1],3.22 ± 0.2,3.09 ± 0.05
CLSRHSINPYSNRESRILFSTWNL [DFFB],2.28 ± 0.27,2.15 ± 0.3
CNDLFKVNPFQLQQFRADPSTASL [TIAF1],2.71 ± 0.063,2.78 ± 0.18
CQTGGVEDQEEWHAQVVEELSNFK [ZBED1],5.73 ± 0.26,5.6 ± 0.16
